Positions count from the first letter of the chain named. Names and notes keep the numbering of the source. Blank lines part the entries; values can stand above or below the binder they belong to.
Tests used:
CTLA-4 (human) = experiment: flow cytometry, cells expressing CTLA-4
PD-L1 (human) = experiment: flow cytometry, cells expressing PD-L1
CD28 (human) [1] = target: CD28 (human) (UniProt P10747); experiment: flow cytometry, cells expressing CD28
[2] = target: CTLA-4 (Homo sapiens (Human)) (UniProt P16410); experiment: flow cytometry, transfected cells
Chain of CTLA-4 (Homo sapiens (Human)) (P16410 36-223): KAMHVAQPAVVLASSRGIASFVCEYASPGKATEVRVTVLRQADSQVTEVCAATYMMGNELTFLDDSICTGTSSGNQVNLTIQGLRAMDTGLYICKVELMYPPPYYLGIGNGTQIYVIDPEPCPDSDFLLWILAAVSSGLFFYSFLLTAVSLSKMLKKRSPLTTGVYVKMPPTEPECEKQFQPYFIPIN

CD28 (human) [3] = target: CD28 (human) (UniProt P10747); experiment: flow cytometry, transfected cells
[4] = substrate: ICOS (Homo sapiens (Human)) (UniProt Q9Y6W8); experiment: flow cytometry, transfected cells
Chain of ICOS (Homo sapiens (Human)) (Q9Y6W8 21-199 limits assumed): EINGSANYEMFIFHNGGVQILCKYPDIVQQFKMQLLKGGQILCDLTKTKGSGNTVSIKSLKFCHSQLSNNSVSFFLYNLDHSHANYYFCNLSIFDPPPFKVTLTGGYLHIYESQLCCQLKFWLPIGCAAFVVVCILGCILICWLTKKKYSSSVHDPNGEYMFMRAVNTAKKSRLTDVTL

Chain of CTLA-4 (human) (chain, as listed by the source): as the sequence (P16410 36-223) above
Chain of PD-L1 (human) (chain, as listed by the source): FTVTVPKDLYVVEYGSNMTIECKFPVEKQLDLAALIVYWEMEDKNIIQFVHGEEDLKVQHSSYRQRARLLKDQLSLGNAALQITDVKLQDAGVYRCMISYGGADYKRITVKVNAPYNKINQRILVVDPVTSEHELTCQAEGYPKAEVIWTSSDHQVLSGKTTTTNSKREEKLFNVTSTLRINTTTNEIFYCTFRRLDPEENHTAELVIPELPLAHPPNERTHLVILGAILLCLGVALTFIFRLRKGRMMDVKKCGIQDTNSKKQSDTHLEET

MFI (CTLA-4 (human)): 1020 MFI | parental ratio (CTLA-4 (human)): 0.02 | MFI (PD-L1 (human)): 1120 MFI | parental ratio (PD-L1 (human)): 0.06 | MFI (CD28 (human) [1]): 1070 MFI | parental ratio (CD28 (human) [1]): 0.08
B1: variant CD80 E24G/R29D/Y31L/Q33H/K36G/M38I/T41A/M43R/M47T/F59L/E81V/L85R/K89N/A91T/F92P/K93V/R94L/H96R/N149S/C182S (Fc fusion)
chain: VIHVTKEVKEVATLSCGHNVSVEGLAQTDILWHKEGKIVLAMRSGDTNIWPEYKNRTILDITNNLSIVILALRPSDEGTYVCVVRKYENDTPVLERLAEVTLSVKADFPTPSISDFEIPTSNIRRIICSTSGGFPEPHLSWLENGEELSAINTTVSQDPETELYAVSSKLDFNMTTNHSFMSLIKYGHLRVNQTFNWNTTKQEHFPDN

MFI (CTLA-4 (human)): 263 MFI | parental ratio (CTLA-4 (human)): 1.26 | MFI (PD-L1 (human)): 6 MFI | parental ratio (PD-L1 (human)): 0.09 | MFI (CD28 (human) [1]): 89 MFI | parental ratio (CD28 (human) [1]): 0.94
B2: variant CD80 V4M/L70Q/A91G/I118V/T120S/T130A/K169E (Fc fusion)
chain: VIHMTKEVKEVATLSCGHNVSVEELAQTRIYWQKEKKMVLTMMSGDMNIWPEYKNRTIFDITNNLSIVIQALRPSDEGTYECVVLKYEKDGFKREHLAEVTLSVKADFPTPSISDFEVPSSNIRRIICSASGGFPEPHLSWLENGEELNAINTTVSQDPETELYAVSSELDFNMTTNHSFMCLIKYGHLRVNQTFNWNTTKQEHFPDN

MFI (CTLA-4 (human)): 128 MFI | parental ratio (CTLA-4 (human)): 0.61 | MFI (PD-L1 (human)): 16 MFI | parental ratio (PD-L1 (human)): 0.11 | MFI (CD28 (human) [1]): 50 MFI | parental ratio (CD28 (human) [1]): 0.53
B3: variant CD80 A91G/F92L/F108L/I118V/T120S (Fc fusion)
chain: B2 chain with M4V, Q70L, F92L, F108L, A130T, E169K

MFI (CTLA-4 (human)): 134 MFI | parental ratio (CTLA-4 (human)): 0.64 | MFI (PD-L1 (human)): 5 MFI | parental ratio (PD-L1 (human)): 0.07 | MFI (CD28 (human) [1]): 88 MFI | parental ratio (CD28 (human) [1]): 0.92
B4: variant CD80 S44P/L70Q/A91G/T130A (Fc fusion)
chain: B2 chain with M4V, S44P, V118I, S120T, E169K

MFI (CTLA-4 (human)): 14 MFI | parental ratio (CTLA-4 (human)): 0.07 | MFI (PD-L1 (human)): 5 MFI | parental ratio (PD-L1 (human)): 0.07 | MFI (CD28 (human) [1]): 8 MFI | parental ratio (CD28 (human) [1]): 0.09
B5: variant CD80 L70Q/A91G/T110A/I118V/T120S/T130A (Fc fusion)
chain: B2 chain with M4V, T110A, E169K

MFI (CTLA-4 (human)): 7 MFI | parental ratio (CTLA-4 (human)): 0.04 | MFI (PD-L1 (human)): 5 MFI | parental ratio (PD-L1 (human)): 0.07 | MFI (CD28 (human) [1]): 5 MFI | parental ratio (CD28 (human) [1]): 0.06
B6: variant CD80 V22A/L70Q/S121P (Fc fusion)
chain: B2 chain with M4V, V22A, G91A, V118I, S120T, S121P, A130T, E169K

MFI (PD-L1 (human)): 6 MFI
B7: variant CD80 L70Q/A91G/I118V/T120S/T130A/K169E (Fc fusion)
chain: B2 chain with M4V

MFI (CTLA-4 (human)): 74 MFI | parental ratio (CTLA-4 (human)): 0.36 | MFI (PD-L1 (human)): 6 MFI | parental ratio (PD-L1 (human)): 0.08 | MFI (CD28 (human) [1]): 20 MFI | parental ratio (CD28 (human) [1]): 0.21
B8: variant CD80 K37E/F59S/L70Q/A91G/T120S/T130A (Fc fusion)
chain: B2 chain with M4V, K37E, F59S, V118I, E169K

MFI (CTLA-4 (human)): 6 MFI | parental ratio (CTLA-4 (human)): 0.03 | MFI (PD-L1 (human)): 6 MFI | parental ratio (PD-L1 (human)): 0.08 | MFI (CD28 (human) [1]): 5 MFI | parental ratio (CD28 (human) [1]): 0.05
B9: variant CD80 I67F/L70R/E88G/A91G/I118V/T120S/T130A (Fc fusion)
chain: B2 chain with M4V, I67F, Q70R, E88G, E169K

MFI (CTLA-4 (human)): 131 MFI | parental ratio (CTLA-4 (human)): 0.63 | MFI (PD-L1 (human)): 5 MFI | parental ratio (PD-L1 (human)): 0.08 | MFI (CD28 (human) [1]): 68 MFI | parental ratio (CD28 (human) [1]): 0.71
B10: variant CD80 K54M/L70Q/A91G/Y164H (Fc fusion)
chain: B2 chain with M4V, K54M, V118I, S120T, A130T, Y164H, E169K

MFI (CTLA-4 (human)): 6 MFI | parental ratio (CTLA-4 (human)): 0.03 | MFI (PD-L1 (human)): 5 MFI | parental ratio (PD-L1 (human)): 0.08 | MFI (CD28 (human) [1]): 6 MFI | parental ratio (CD28 (human) [1]): 0.06
B11: variant CD80 A91G/L102S (Fc fusion)
chain: B2 chain with M4V, Q70L, L102S, V118I, S120T, A130T, E169K

MFI (CTLA-4 (human)): 6 MFI | parental ratio (CTLA-4 (human)): 0.03 | MFI (PD-L1 (human)): 5 MFI | parental ratio (PD-L1 (human)): 0.08 | MFI (CD28 (human) [1]): 6 MFI | parental ratio (CD28 (human) [1]): 0.06
B12: variant CD80 A12V/S15F/Y31H/M38L/T41G/M43L/D90N/T130A/P137L/N149D/N152T (Fc fusion)
chain: VIHVTKEVKEVVTLFCGHNVSVEELAQTRIHWQKEKKLVLGMLSGDMNIWPEYKNRTIFDITNNLSIVILALRPSDEGTYECVVLKYEKNAFKREHLAEVTLSVKADFPTPSISDFEIPTSNIRRIICSASGGFPELHLSWLENGEELDAITTTVSQDPETELYAVSSKLDFNMTTNHSFMCLIKYGHLRVNQTFNWNTTKQEHFPDN

MFI (CTLA-4 (human)): 996 MFI | parental ratio (CTLA-4 (human)): 0.02 | MFI (PD-L1 (human)): 1580 MFI | parental ratio (PD-L1 (human)): 0.09 | MFI (CD28 (human) [1]): 1030 MFI | parental ratio (CD28 (human) [1]): 0.08
B13: variant CD80 R29V/M43Q/E81R/L85I/K89R/D90L/A91E/F92N/K93Q/R94G (Fc fusion)
chain: VIHVTKEVKEVATLSCGHNVSVEELAQTVIYWQKEKKMVLTMQSGDMNIWPEYKNRTIFDITNNLSIVILALRPSDEGTYRCVVIKYERLENQGEHLAEVTLSVKADFPTPSISDFEIPTSNIRRIICSTSGGFPEPHLSWLENGEELNAINTTVSQDPETELYAVSSKLDFNMTTNHSFMCLIKYGHLRVNQTFNWNTTKQEHFPDN

MFI [2]: 378000 MFI | MFI ratio to WT (ΔWT) [2]: 1.14 fold | MFI (CD28 (human) [3]): 143000 MFI | MFI ratio to WT (ΔWT) (CD28 (human) [3]): 6.4 fold | MFI [4]: 259000 MFI | MFI ratio to WT (ΔWT) [4]: 1.22 fold
B14: ICOSL-Fc N52T/N57H/Q100S (Fc fusion)
chain: DTQEKEVRAMVGSDVELSCACPEGSRFDLNDVYVYWQTSESKTVVTYHIPQTSSLEHVDSRYRNRALMSPAGMLRGDFSLRLFNVTPQDEQKFHCLVLSSSLGFQEVLSVEVTLHVAANFSVPVVSAPHSPSQDELTFTCTSINGYPRPNVYWINKTDNSLLDQALQNDTVFLNMRGLYDVVSVLRIARTPSVNIGCCIENVLLQQNLTVGSQTGNDIGERDKITENPVSTGEKNAAT

Reference: patent US20250163127A1
